Article PMC3025952, “Characterization of a core fragment of the rhesus monkey TRIM5α protein” (BMC Biochemistry, 2011)
Positions count from the first letter of the chain named. In names and notes the source's numbering stands.

Assays:
[1] = molecular target: the molecule itself; assay: SEC; Superdex 200 (10/30) column calibrated with globular molecular-weight markers, PBS; for LLER also with 25 μM ZnCl2 and DTT (profile not significantly affected)
[2] = molecular target: the molecule itself; assay: SEC-MALS; SEC-LS: about 300 μg LLER on Superose 6 HR 10/30 with in-line Dawn EOS light scattering, refractometer and UV detector
[3] = molecular target: the molecule itself; assay: single-particle cryo-electron microscopy; peak 1 and peak 2 gel-filtration fractions of LLER; peak 2 also incubated with an anti-His6 antibody to count the tags in a particle

B1: BCCL2 protein, wild-type (B-box 2, coiled coil and linker 2 region of rhesus monkey TRIM5α), His6-tagged, from E. coli (domain or fragment)
chain: GSGLVPRGSASMSDSEVNQEAKPEVKLSPEEGQKVDHCARHGEKLLLFCQEDSKVICWLCERSQEHRGHHTFLMEEVAQEYHVKLQTALEMLRQKQQEAEKLEADIREEKASWKIQIDYDKTNVSADFEQLREILDWEESNELQNLEKEEEDILKSLTKSETEMVQQTQYMRELISELEHRLQGSMMDLLQGVDGIIKRIENMTLKKPKTFHKNQRRVFRAPDLKGMLDMFRELTDA
notes: vector-derived spacer between the His6 tag and E83 of TRIM5αrh; Predicted molecular weight with tag and spacer 29.026 kD; also called wild-type (wt); core fragment of TRIM5αrh; source: E. coli BL21(DE3)pLysS, purified (Ni-NTA, SEC, anion exchange); not shown: His6, N-terminal, kept
[1]
  binding result: binds

B2: BCCL2 LLER protein (L105E, L106E, E120R, R121E), His6-tagged, from E. coli (domain or fragment, rhesus monkey)
chain: B1 chain with L46E, L47E, E61R, R62E
notes: vector-derived spacer between the His6 tag and E83 of TRIM5αrh; also called LLER variant; source: E. coli BL21(DE3)pLysS, purified (Ni-NTA, anion exchange, SEC); not shown: His6, N-terminal, kept
[2]
  stoichiometry N: 2
[3]
  stoichiometry N: ≥ 2
